The source of these data is the Human Domainome abundance scans (Beltran et al. 2025).

± gives the uncertainty stated by the source.

First the molecules themselves.
B1: LIM and senescent cell antigen-like-containing domain protein 2, residues 13 to 71; numbered along this chain, Q7Z4I7 (parent)
chain: AVCQRCQARFSPAERIVNSNGELYHEHCFVCAQCFRPFPEGLFYEFEGRKYCEHDFQML

The data set covers variants of B1. Put plainly: abundance fitness (aPCA) (normalised: wild type 0, dead -1); higher = more abundant; growth selection in yeast, the domain comes from the species named. Particulars: Homo sapiens.
With AVCQRCQARFSPAERIVNSNGELYHEHCFVCATCFRPFPEGLFYEFEGRKYCEHDFQML [Q33T], the abundance fitness is 0.012 ± 0.081.

In the case of AVCQRCQARFSPAERIVNSNGELYHEHCFVCACCFRPFPEGLFYEFEGRKYCEHDFQML [Q33C], the abundance fitness was -0.145 ± 0.28.

As for AVCQRCQARFSPAERIVNSNGELYHEHCFVCAWCFRPFPEGLFYEFEGRKYCEHDFQML [Q33W], the abundance fitness was -0.206 ± 0.13. For AVCQRCQARFSPAERIVNSNGELYHEHCFVCAQCFRPWPEGLFYEFEGRKYCEHDFQML [F38W], the abundance fitness was -0.273 ± 0.083. The result for AVCQRCQARFSPAERIVNSNGELYHEHCFVCAQCFRPHPEGLFYEFEGRKYCEHDFQML [F38H] reads -0.784 ± 0.23; that for AVCQRCQARFSPAERIVNSNGELYHEHCFVCAQCFRPGPEGLFYEFEGRKYCEHDFQML [F38G], -0.58 ± 0.098. For the variant AVCQRCQARFSPAERIVNSNGELYHEHCFVCAQCFRPFPEGLFYEFEGRKVCEHDFQML [Y51V], the abundance fitness was 0.014 ± 0.062. Take AVCQRCQARFSPAERIVKSNGELYHEHCFVCAQCFRPFPEGLFYEFEGRKYCEHDFQML [N18K]: the abundance fitness was -0.411 ± 0.14. The result for AVCQRCQARFSPAERIVWSNGELYHEHCFVCAQCFRPFPEGLFYEFEGRKYCEHDFQML [N18W] reads -0.639 ± 0.12; that for AVCQRCQARFSPAERIVSSNGELYHEHCFVCAQCFRPFPEGLFYEFEGRKYCEHDFQML [N18S], -0.333 ± 0.07.

For AVCQRCQARFSPAERIVNSNGELYHEHCFVCAQCFRPFPEGLFYEFEGRKYCEADFQML [H54A], the abundance fitness was determined as 0.064 ± 0.072.

Take AVCQRCQARFSPAERIVNSNGELYHEHCFVCAQCFRPFPEGLFYEFHGRKYCEHDFQML [E47H]: the abundance fitness was found to be 0.022 ± 0.11. Then AVCQRCQARFSPAERIVNSNGELYHEHCFVCAQCFRPFPEGLFYEFGGRKYCEHDFQML [E47G], with -0.062 ± 0.048; and AVCQRCQARFSPAERIVNSNGELYHEHCFVCAQCFRPFPEGLFYEFTGRKYCEHDFQML [E47T], with -0.434 ± 0.073; and AVCQRCQARFSPAERIVNSNGELYHEHCFVCAQCFRPFPEGLFYEFEGRKYCEHIFQML [D55I], with -0.921 ± 0.14. For AVCQRCQARFSPAERIVNSNGELYHEHCFVCAQCFRPFPEGLFYEFEGRKYCEHLFQML [D55L], the abundance fitness was -0.933 ± 0.083. On to AVCQRCQARFSPAERIVNSNGELYHEHCFVCAQCFRPFPEGLFYEFEGRKYCEHTFQML [D55T], for which the abundance fitness is -0.651 ± 0.084. Turning to AVCQRCQARFSPAERIVNSNGELYHEHCFVCAQCFRPFPEGLFYEFEGRKYCEHPFQML [D55P], the abundance fitness was -0.839 ± 0.11. For the variant AVCQRCQARFSPAERIVNSNGELYHEHCFVCAQCFRPFPEGLKYEFEGRKYCEHDFQML [F43K], the abundance fitness is -0.365 ± 0.084. Consider AVCQRCQARFSPAERIVNSNGELYHEHCFVCAQCFRPFPEGLVYEFEGRKYCEHDFQML [F43V], for which the abundance fitness is -0.132 ± 0.06. Then AVCQRCQARFSPAERIVNSNGELYHEHCFVCAQCFRPFPHGLFYEFEGRKYCEHDFQML [E40H], with 0.023 ± 0.095; and AVCKRCQARFSPAERIVNSNGELYHEHCFVCAQCFRPFPEGLFYEFEGRKYCEHDFQML [Q4K], with -0.007 ± 0.091; and AVCQRCQARFSPAERIVNSNGELYHEHCFVCAQCFRCFPEGLFYEFEGRKYCEHDFQML [P37C], with -0.171 ± 0.096.

Regarding AVCQRCQARFSPAERIVNSNGELYHEHCFVCAQCFRQFPEGLFYEFEGRKYCEHDFQML [P37Q], the abundance fitness was -0.343 ± 0.1. The result for AVCQRCQARFSPAERIVNSNGELYHEHCFVCAQCFRWFPEGLFYEFEGRKYCEHDFQML [P37W] reads -0.371 ± 0.1; that for AVCQRCQARFSPAERIVNSNGELYHEHLFVCAQCFRPFPEGLFYEFEGRKYCEHDFQML [C28L], -1.08 ± 0.13; that for AVCQRCQARFSPAERIVNSNGELYHEHCFVCAQSFRPFPEGLFYEFEGRKYCEHDFQML [C34S], -1 ± 0.15. For AVCQRCQARFSPAERIVNSNGELYHEHCFVCAQGFRPFPEGLFYEFEGRKYCEHDFQML [C34G], the abundance fitness was -0.544 ± 0.13.

For the variant AVCQRCQARFSPAERIVNSNGELYHEHCFVCAQLFRPFPEGLFYEFEGRKYCEHDFQML [C34L], the abundance fitness was -0.52 ± 0.079. AVCQRGQARFSPAERIVNSNGELYHEHCFVCAQCFRPFPEGLFYEFEGRKYCEHDFQML [C6G]: the abundance fitness was -0.757 ± 0.1.

For AVCQRCQARFSPAERIVNSNGELYHEACFVCAQCFRPFPEGLFYEFEGRKYCEHDFQML [H27A], the abundance fitness is -0.175 ± 0.25. As to AVCQRCQARFSPAERIVNSNGELYHEHCFVCAQCFRPFPEGLFYEFEGEKYCEHDFQML [R49E], the abundance fitness was -0.205 ± 0.12. Consider AVCQRCQARFSPAERIVNSNGELYHEHCFVCAQCFRPFPEGLFYEFEGTKYCEHDFQML [R49T], for which the abundance fitness is -0.066 ± 0.087. Turning to AVCQRCQARFSPAERIVNSNGELYHEHCFVCAQCFRPFPEGVFYEFEGRKYCEHDFQML [L42V], the abundance fitness is -0.026 ± 0.075. Then AVCQRCQARFSPAERIVNSNGELYHEHCFVCAQCFRPFPEGKFYEFEGRKYCEHDFQML [L42K], with 0.047 ± 0.096; and AVCQRCAARFSPAERIVNSNGELYHEHCFVCAQCFRPFPEGLFYEFEGRKYCEHDFQML [Q7A], with 0.057 ± 0.061. Turning to AVCQRCVARFSPAERIVNSNGELYHEHCFVCAQCFRPFPEGLFYEFEGRKYCEHDFQML [Q7V], the abundance fitness is -0.121 ± 0.05. The result for AVCQRCQARFSPAERIVNSNGELYHEHCFVCAQCFRPFPEGLFYEFEGRKYCEHDLQML [F56L] reads -0.091 ± 0.17; that for AVCQRCQARFSPAERIVNSNGELYHEHCFVCAQCFRPFPEGLFYEFEGRKYCEHDRQML [F56R], -0.361 ± 0.21; that for AVCQRCQARFSPAERIVNSNGELYHEHCFVCAQCFRPFAEGLFYEFEGRKYCEHDFQML [P39A], -0.056 ± 0.053.

With AVCQRCQARFSPAERIVNSNGELYHEHCFVCAQCFRPFPEGLFYEFEGRKYCEHDFVML [Q57V], the abundance fitness is -0.156 ± 0.069. As for AVCQRCQARFSPAERIVNSNGELYAEHCFVCAQCFRPFPEGLFYEFEGRKYCEHDFQML [H25A], the abundance fitness was -0.918 ± 0.14. Consider AVCQRCQARFSPAERIVNSNGELYGEHCFVCAQCFRPFPEGLFYEFEGRKYCEHDFQML [H25G], for which the abundance fitness is -0.832 ± 0.14. For the variant AVCQRCQARFSPAERIVNSNGEKYHEHCFVCAQCFRPFPEGLFYEFEGRKYCEHDFQML [L23K], the abundance fitness is -0.013 ± 0.055. The result for AVCQRCQARFSPAERIVNSNGEMYHEHCFVCAQCFRPFPEGLFYEFEGRKYCEHDFQML [L23M] reads 0.067 ± 0.051.
